The target in one data set is T1, SORT1 (Homo sapiens, UniProt Q99523).
T1 construct: Human SORT1 (78-755)-His (Acrobiosystems); His (C); purchased Acrobiosystems SON—H52H5
T1 sequence (Q99523 78-755): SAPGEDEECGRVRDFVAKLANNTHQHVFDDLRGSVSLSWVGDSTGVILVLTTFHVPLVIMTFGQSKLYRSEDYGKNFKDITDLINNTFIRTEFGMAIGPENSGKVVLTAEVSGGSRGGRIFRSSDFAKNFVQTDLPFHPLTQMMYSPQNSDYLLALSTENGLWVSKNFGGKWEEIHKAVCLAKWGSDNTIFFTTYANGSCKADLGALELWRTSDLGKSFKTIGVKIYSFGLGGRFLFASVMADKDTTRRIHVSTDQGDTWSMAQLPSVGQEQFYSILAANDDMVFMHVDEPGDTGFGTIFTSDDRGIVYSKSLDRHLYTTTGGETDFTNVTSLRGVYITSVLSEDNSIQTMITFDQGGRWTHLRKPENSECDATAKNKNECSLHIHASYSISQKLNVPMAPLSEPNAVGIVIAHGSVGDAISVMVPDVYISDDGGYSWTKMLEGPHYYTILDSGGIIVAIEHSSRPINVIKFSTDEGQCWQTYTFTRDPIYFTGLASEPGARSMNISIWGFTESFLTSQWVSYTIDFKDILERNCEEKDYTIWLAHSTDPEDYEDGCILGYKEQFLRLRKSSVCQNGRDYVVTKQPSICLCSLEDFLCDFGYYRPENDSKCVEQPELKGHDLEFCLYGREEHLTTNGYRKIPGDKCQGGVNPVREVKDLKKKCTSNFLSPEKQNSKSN
Nature of the data set: Competition binding in FP. As to conditions: FP competition binding assays, PDC vs parent peptide. Here is the method: Competition binding studies were conducted in a similar manner to the direct binding protocol. Unlabeled peptides were prepared with a 12-point, two-fold dilution series in a V-bottom 96-well plate for a total volume of 25 μL with a starting concentration of 50 μM. A 10× working stock of the FAM labeled peptide was prepared as described for the Direct binding experiment.
An aliquot of 20 μL of the 500 nM working solution was then added to 2.5 μL of the FAM-peptide, after which 2.5 μL of the unlabeled peptide dilution series was added and mixed by pipetting in a V-bottom 96-well plate. Samples were allowed to incubate for 15 minutes, then 10 μL of the mixture was transferred to an opaque black 384-well non-binding FP plate (Corning® Low Volume 384-well Black Flat Bottom Polystyrene NBS Microplate, #3820) in technical duplicates. The 384-well plate was then centrifuged 1 min, 4000 rpm and fluorescence and polarization of dye measured on a Biotek Synergy Neo2 plate reader using the same settings as for the Direct Binding experiment. Data were then fitted to a One site—Fit logIC50 curve in GraphPad to calculate the IC50.

A short description of data set [1]: Maximum tolerated dose (MTD) study. The format is in vivo, BALB/c Nude mice. As to conditions: for body weight loss: after 48 hrs. Here is the method: BALB/c Nude mice, female, 6-8 weeks, weighing approximately 18-22 g were purchased from the Shanghai SLAC Laboratory Animal Co., LTD. MTD studies were conducted at WuXi AppTec and the care and use of animals was conducted in accordance with the regulations of the Association for Assessment and Accreditation of Laboratory Animal Care (AAALAC). Two MTD studies were performed (a) a low dose study with doses ranging from 0.1, 0.5, 1 and 3 mg/kg and (b) a high dose study with doses ranging from 3, 5, 10 mg/kg. Dosing volume was determined based on body weight (10 ul/g) and PDCs were dissolved in 25 mM Histidine 10% sucrose pH 7 and administered i.v. at a single dose at day 0. The treatment and observation were conducted up to 7 days and MTD was defined by ≥20% body weight loss. Body weights were measured daily, death and observed clinical signs were recorded.
Doses of 3, 5, and 10 mg/kg were administered. MTD was defined by ≥20% body weight loss and body weight measured daily.

A further data set concerns MDA-MB-231 tumor cells. Put plainly: MDA-MB-231 murine xenograft efficacy model. It is filed as in vivo, BALB/c Nude mice. Here is the method:
Murine xenograft experiments were conducted at WuXi AppTec and/or Charles River Laboratories and the care and use of animals was conducted in accordance with the regulations of the Association for Assessment and Accreditation of Laboratory Animal Care (AAALAC). MDA-MB-231 tumor cells (ATCC, Manassas, VA, cat #HTB-26) were grown and maintained in L15 medium supplemented with 10% heat inactivated fetal bovine serum, 1% Antibiotic-Antimycotic, and L-glutamine (2 mM) at 37° C. in an atmosphere in 5% CO2, 95% air. BALB/c Nude, female, 6-8 weeks, weighing approximately 18-22 g were purchased from Vital River Laboratory Animal Technology Co., LTD. Mice were inoculated subcutaneously at the right flank with MDA-MB-231 tumor cells (e.g., triple negative breast cancer cells) (10×10^6) in 0.2 mL of PBS with Matrigel (1:1) for tumor development. Animals were randomized and treatment was started when the average tumor volume reached approximately 150-200 mm^3 for the efficacy study. Dosing volume was adjusted based on body weight and was administered at 10 ml/Kg. […] Free MMAE payload was also tested, and similarly dissolved in 25 mM Histidine 10% sucrose pH 7 and one or more of the following doses, 0.6, 0.06 mg/kg, were administered to the mice i.v. at a QW×4 schedule. Tumor sizes were measured twice weekly in two dimensions using a caliper, and the volume in mm^3 calculated using the formula: V=0.5 a×b^2, where a and b are the long and short diameters of the tumor, respectively. TGI was calculated for each group using the formula: TGI (%)=[1−(Ti−T0)/(Vi−V0)]×100; where Ti is the average tumor volume of a treatment group on a given day, T0 is the average tumor volume of the treatment group on the first day of treatment, Vi is the average tumor volume of the vehicle control group on the same day with Ti, and V0 is the average tumor volume of the vehicle group on the first day of treatment.

`CC[C@H](C)[C@@H]([C@@H](CC(=O)N1CCC[C@H]1[C@H](OC)[C@@H](C)C(=O)N[C@H](C)[C@@H](O)c1ccccc1)OC)N(C)C(=O)[C@@H](NC(=O)[C@H](C(C)C)N(C)C(=O)OCc1ccc(NC(=O)[C@H](CCCNC(N)=O)NC(=O)[C@@H](NC(=O)CCCC(=O)NCCC(=O)N(C)CC(=O)N(C)CC(=O)N(C)CC(=O)N(C)CC(=O)N[C@@H](C)C(=O)N2CCC[C@H]2C(=O)N[C@@H](CCCNC(=N)N)C(=O)N[C@@H](Cc2c[nH]c3ccccc23)C(=O)N[C@@H](CC(=O)O)C(=O)N[C@@H](C)C(=O)N2CCC[C@H]2C(=O)N[C@@H](CC(C)C)C(=O)N[C@@H](CCCNC(=N)N)C(=O)N[C@@H](CC(=O)O)C(=O)N2CCC[C@H]2C(=O)N[C@@H](C)C(=O)N[C@@H](CC(C)C)C(=O)N[C@@H](CCCNC(=N)N)C(=O)N[C@@H](CCC(N)=O)C(=O)N[C@@H](CC(C)C)C(=O)N[C@@H](CC(C)C)C(=O)O)C(C)C)cc1)C(C)C` [PRGN_WT_PDC]: the “increase in affinity relative to parent homing peptide” value at SORT1 was ~2.5 ×. The body weight loss in data set [1] (5 mg/kg single i.v. dose, recovered at Day 7) is given as ~15%; in data set [1] (10 mg/kg single i.v. dose), “greater than 20%”; in the data set with MDA-MB-231 tumor cells (Example 8, PDC 3 mg/kg, free MMAE 0.6 mg/kg, i.v. QW×4), “body weight loss tracked each other”. Further, the “toxicity” value in data set [1] (10 mg/kg single i.v. dose) is “significant toxicity”. For the same molecule, the “tumor growth inhibited relative to vehicle” value in the data set on MDA-MB-231 tumor cells (3 mg/kg i.v. QW×4, day 22 (Example 8)) worked out at 96%. Besides, the “tumor growth inhibition” value with MDA-MB-231 tumor cells (3, 1, 0.3 mg/kg i.v. QW x 4) was “dose-dependent tumor growth inhibition”. Besides, the body weight variation entry with MDA-MB-231 tumor cells (Example 6, PDC 3, 1, 0.3 mg/kg, free MMAE at equivalency to 3 mg/kg PDC) is reported as “mirrored that observed with vehicle treatment”.

The values are drawn from patent publication US20240285785A1, “TARGETING SORTILIN” (priority 2022, published 2024).
